According to the supplement of paper PMC10724198:
± gives the standard deviation of the averaged measurements.

System: Saccharomyces cerevisiae
Assay: protein stability index of tFT-peptide fusion (C-terminal peptide) (PSI (0-1 scale)); higher = more stable (slower turnover)
Settings: genetic background: wild type; temperature: 30 C
Experimental: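 Multiplexed protein stability (MPS) profiling in S. cerevisiae. Random 12-aa peptides (tFT-X12 library) are fused to the C-terminus of a sfGFP-mCherry tandem fluorescent timer, after mCherry and a GGGS linker. Cells are FACS-sorted into 8 mCherry/sfGFP bins and deep-sequenced. The protein stability index (PSI) is the read-weighted bin average, scaled from 0 (unstable) to 1 (stable). Only peptides with >10 reads are reported; cells were grown at 30 °C in SC-His with glucose.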
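Further: PSI is a weighted mean of sequencing reads over stability bins, variants kept only with over 10 reads, mCherry proximal and sfGFP distal, peptide attached via GGGS linker.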

In order of falling protein stability index:
1. IRKLDIIFLSES  0.827 ± 0.063
2. HSCFPPLSTSVL  0.817 ± 0.12
3. HWPSPLSPAVPG  0.804 ± 0.084
4. IERFKKMRGVGS  0.801 ± 0.084
5. IGGWWCGALLGD  0.79 ± 0.074
6. IPHHFSPPLPSP  0.772 ± 0.082
7. HTWARGLGVIRP  0.768 ± 0.012
8. ITTKLRVTRLLR  0.766 ± 0.13
9. HYRSNFGRDSNL  0.762 ± 0.082
10. HPPLPPPLPGSP  0.761 ± 0.049
11. IHLSVYPLQPSC  0.76 ± 0.04
12. IKNEEKKLIESQ  0.76 ± 0.073
13. HPPLLPPPTPTS  0.752 ± 0.062
14. HPWAFRIRTPRL  0.752 ± 0.09
15. HTYKADSLYTAR  0.748 ± 0.015
16. HPATPPPLLPPL  0.74479 ± 0.0007
17. HVVVSPRSNRIL  0.7429 ± 0.0055
18. KAGVWLWVGGGG  0.739 ± 0.015
19. IDPTLPARAAPP  0.737 ± 0.029
20. IMTNGADRERYR  0.736 ± 0.034
21. IENNIITRGTRV  0.735 ± 0.027
22. IKKSMKSLTRTE  0.735 ± 0.015
23. HPFLPLFYHFPF  0.733 ± 0.037
24. ICCGLCRDCSCL  0.732 ± 0.069
25. HSWFSWSVVSEL  0.7308 ± 0.0018
26. INKKKKEKKKVE  0.731 ± 0.023
27. HSPVPPLPALPL  0.73 ± 0.024
28. KEFFGGSTDFRV  0.729 ± 0.18
29. KIDKKNKKKKRN  0.728 ± 0.023
30. IGFCVRGYGTTG  0.727 ± 0.1
31. HSPHSQYLLRID  0.72 ± 0.033
32. HSQAPPPHPHAP  0.719 ± 0.024
33. HQPSPFPKNSPT  0.717 ± 0.06
34. IYVGAGCLGHTE  0.717 ± 0.068
35. HPRWTPPTQSAS  0.716 ± 0.049
36. HNKTTNGNSHKN  0.715 ± 0.073
37. HSYLSPPLLASP  0.715 ± 0.069
38. KDSSRHSPDPSR  0.715 ± 0.086
39. IFNYGGANFIYC  0.714 ± 0.028
40. HPPSPPPPPSRL  0.713 ± 0.071
41. KAGVGAFLEPRS  0.713 ± 0.064
42. HPPPVLSPPLSP  0.7107 ± 0.0033
43. IGVVKHGAAEKV  0.711 ± 0.069
44. IREFNLGTQIRY  0.711 ± 0.035
45. HPVLGPNRVINI  0.71 ± 0.087
46. INPLAHCSISRS  0.7086 ± 0.0066
47. ISLRAPVRPECV  0.709 ± 0.031
48. ILGGRIRLVGRK  0.708 ± 0.033
49. IRRRKRKRNQKP  0.708 ± 0.032
50. HPRPPAASSRTR  0.707 ± 0.044
51. HWRWGGRSGGDR  0.707 ± 0.013
52. ISMPECDIVEEI  0.707 ± 0.022
53. KIGYTISGFVIS  0.707 ± 0.054
54. HSGDLYFWGCRD  0.706 ± 0.061
55. IIRKTKSKQEMI  0.706 ± 0.039
56. KGETRLTSARLI  0.706 ± 0.028
57. KDKNPDARDDGG  0.705 ± 0.04
58. HRFEEGAPAPTE  0.704 ± 0.013
59. HTGPTRPGHPLP  0.703 ± 0.03
60. IFPPPLLPSLPT  0.703 ± 0.086
61. KETQKKKQDKKK  0.703 ± 0.0091
62. HSRALLSVLPPH  0.7023 ± 0.0057
63. ILCTVVKTDSKE  0.702 ± 0.081
64. IRKEKREKKSSH  0.702 ± 0.069
65. IKNEKKKKKNKK  0.7 ± 0.035
66. IGTRHIKILGRY  0.698 ± 0.047
67. HPSSLRLSSSAF  0.697 ± 0.014
68. INEEIVDMKRLL  0.697 ± 0.0095
69. IYRWSGTVGGER  0.6971 ± 0.003
70. KEGKGRGDGGRE  0.697 ± 0.018
71. ISPPAPTNLPTT  0.696 ± 0.043
72. HVRLSCTRGMVI  0.695 ± 0.015
73. ISLVMLLKDAWR  0.695 ± 0.019
74. IAAPANQGHSKP  0.694 ± 0.042
75. IPQTITLPHSNP  0.694 ± 0.088
76. ISSKREITGSVA  0.694 ± 0.012
77. KFKREKKKINKR  0.6938 ± 0.0023
78. HRCNCVFPENSL  0.693 ± 0.038
79. HRKPHRSKTPIH  0.693 ± 0.032
80. ILSASSLFPFVS  0.693 ± 0.053
81. KGDWGGRGCGRH  0.693 ± 0.021
82. HRPPSVNRVSLM  0.692 ± 0.012
83. HPPKPHHPSNPC  0.691 ± 0.034
84. IKSKFILKTRPM  0.691 ± 0.091
85. KGDAQASSDLTL  0.691 ± 0.014
86. HTEVDIVKRDRR  0.6896 ± 0.00098
87. IGHVVTWCFGRV  0.6898 ± 0.0041
88. IIVPCGRWEGGG  0.69 ± 0.017
89. IWLSCCPLAFWS  0.6896 ± 0.0065
90. IYRTYEAKPGHP  0.69 ± 0.12
91. ICRFSNRYSCPL  0.689 ± 0.016
92. KEDKLLRSSEGF  0.6886 ± 0.0029
93. IDPVVFCEYTHA  0.688 ± 0.011
94. IWRLLLPLPNPF  0.688 ± 0.019
95. ISLLIFSPTLFS  0.687 ± 0.035
96. HTRLCFSPPRGI  0.686 ± 0.02
97. KHYKVDAVNIRG  0.686 ± 0.035
98. IFRTRISSSLWC  0.685 ± 0.0083
99. ITRKKLEISVDK  0.685 ± 0.04
100. KGGGMWRCCVWR  0.685 ± 0.0089
101. IFWGFSFRGWGG  0.684 ± 0.0086
102. IGGGWIGRYVSR  0.684 ± 0.033
103. IPPLTKRPAPGG  0.684 ± 0.099
104. KIDKKSKKKKEI  0.684 ± 0.017
105. ILYNIEKQQSSV  0.683 ± 0.032
106. ITHLFRSSIYSR  0.683 ± 0.12
107. ICEYGLKRKIHF  0.68199 ± 0.0006
108. KDKEQKKIKKSI  0.681 ± 0.13
109. KGEKKNEEEERG  0.68 ± 0.01
110. KHPLAPLRRPVI  0.68 ± 0.0078
111. KEKGSRYKRALS  0.679 ± 0.014
112. HPYVTSHGRPLR  0.677 ± 0.024
113. HRLSFPTQNIRG  0.677 ± 0.019
114. KEELKKRRQEAK  0.677 ± 0.012
115. HRGIPMRDLAPN  0.675 ± 0.02
116. ISEINQKGKNRE  0.675 ± 0.037
117. HRRCPILFKMAT  0.674 ± 0.12
118. HYPLPPLLPPAP  0.674 ± 0.014
119. IPPLPSSIPRSF  0.673 ± 0.022
120. KIDKNILTNKEN  0.673 ± 0.056
121. IKKRDKAKKEYI  0.672 ± 0.0077
122. KGGREARRERRD  0.672 ± 0.036
123. IFGMSGYVSIIL  0.671 ± 0.014
124. IIQNNNQLKKRR  0.671 ± 0.049
125. IKNSCAGCTRDV  0.671 ± 0.035
126. KDEWVQSHTNQV  0.671 ± 0.0083
127. IRRPSVTAIRPS  0.667 ± 0.08
128. ITNEQEMKRYDV  0.667 ± 0.013
129. KAGHEPRLTRKQ  0.667 ± 0.022
130. KDDEQESESKNN  0.667 ± 0.011
131. KGETSYTGIAVG  0.667 ± 0.085
132. IHQVGCFHIPFG  0.666 ± 0.0097
133. IPSKHKPSRIPI  0.665 ± 0.014
134. IVSKESNVYIIK  0.662 ± 0.053
135. HSPPSPHFPHHH  0.6609 ± 0.0043
136. IKKYNEKRITKV  0.66 ± 0.045
137. INKWNKRDGLFQ  0.66 ± 0.03
138. ILPCSRYNILNV  0.659 ± 0.0078
139. IVEERLFWKMWE  0.659 ± 0.015
140. ILLFLLPFSHRL  0.658 ± 0.076
141. IQFKDKAVSETE  0.658 ± 0.021
142. IVNKRLKIRKKQ  0.658 ± 0.045
143. KCDLTREDVVHR  0.657 ± 0.01
144. HRARWLSLGVTW  0.655 ± 0.035
145. IGVRSTRFCAIR  0.655 ± 0.0093
146. IKLKVKIQKENG  0.654 ± 0.021
147. ITGLRNSRFNRP  0.652 ± 0.0068
148. IVFVLRPRRSRC  0.65 ± 0.04
149. IFVTLGWARMRY  0.647 ± 0.065
150. INARCNRTIVRP  0.646 ± 0.021
151. HPVPFSVASHLN  0.645 ± 0.03
152. HSSDTAFSPLPP  0.6449 ± 0.0024
153. KGSWTLGDGLVW  0.644 ± 0.013
154. HSRPHTAPPYRA  0.643 ± 0.023
155. IRGCSGSDKNKS  0.643 ± 0.047
156. KEEGLKRAKGPQ  0.642 ± 0.02
157. ILTCGARSSICD  0.639 ± 0.011
158. HTEELKKSIKTQ  0.637 ± 0.082
159. HPPASPPHSPRS  0.63 ± 0.07
160. ISKEIKKRLNRY  0.63 ± 0.055
161. IEFPQGRKTTQS  0.629 ± 0.0082
162. HRSIDEGCSCCD  0.627 ± 0.093
163. IACDPNNRKDFT  0.627 ± 0.008
164. IQARAVRRSAII  0.627 ± 0.0012
165. KDRKKYIMTKPS  0.627 ± 0.051
166. HPPTLPPLPIPP  0.625 ± 0.0091
167. IDLVLCIGLGYQ  0.62 ± 0.063
168. IERKNYPQNRRQ  0.62 ± 0.046
169. IDVIIESVFSLF  0.619 ± 0.09
170. IKGKNTGKERER  0.6176 ± 0.00089
171. KGANISDCLSIF  0.616 ± 0.018
172. IGLKKVVKIRKD  0.614 ± 0.039
173. HSLRRLSLYVSL  0.612 ± 0.086
174. KFLISIWGGTRG  0.6118 ± 0.0025
175. HPPPDPPFLAST  0.611 ± 0.042
176. KIIASVLYGVIG  0.61 ± 0.037
177. KGQIVIDTKGGG  0.609 ± 0.053
178. ITALYVILTRRP  0.6007 ± 0.0033
179. HNIRIDTSEKNR  0.6001 ± 0.0024
180. ICSVGGFWLSCV  0.596 ± 0.032
181. ICVTSFSVWGCC  0.592 ± 0.028
182. IWLAFCTLRPVS  0.591 ± 0.027
183. IIVWGGAGLWGV  0.59 ± 0.0027
184. ISFFLLYFPPSY  0.59 ± 0.024
185. IRSLPYVGVFIE  0.587 ± 0.036
186. IGWCPASFMVIG  0.585 ± 0.049
187. IVVLMEADLAGC  0.583 ± 0.02
188. IVRMLTCGVGWD  0.581 ± 0.016
189. KGKTARDVLLLV  0.58 ± 0.013
190. ILLSHRLQVSSC  0.564 ± 0.035
191. IGFPFRIYRFAF  0.563 ± 0.04
192. KFARHVLIQSHV  0.559 ± 0.04
193. IAEVGRFHLVVS  0.542 ± 0.04
194. IALWLYALSLAF  0.532 ± 0.016
195. IACSVWYCCMVI  0.526 ± 0.014
196. IVRENGKDVGVG  0.506 ± 0.014
